The labels stand for the following.
B1: SEQ ID NO: 181 (peptide)
peptide: H[Aib]EGTFTSDVSYLLEGAALQRFIQWLV-NH2
modifications: N-terminus assumed
SMILES: CC[C@H](C)[C@H](NC(=O)[C@H](Cc1ccccc1)NC(=O)[C@H](CCCNC(=N)N)NC(=O)[C@H](CCC(N)=O)NC(=O)[C@H](CC(C)C)NC(=O)[C@H](C)NC(=O)[C@H](C)NC(=O)CNC(=O)[C@H](CCC(=O)O)NC(=O)[C@H](CC(C)C)NC(=O)[C@H](CC(C)C)NC(=O)[C@H](Cc1ccc(O)cc1)NC(=O)[C@H](CO)NC(=O)[C@@H](NC(=O)[C@H](CC(=O)O)NC(=O)[C@H](CO)NC(=O)[C@@H](NC(=O)[C@H](Cc1ccccc1)NC(=O)[C@@H](NC(=O)CNC(=O)[C@H](CCC(=O)O)NC(=O)C(C)(C)NC(=O)[C@@H](N)Cc1c[nH]cn1)[C@@H](C)O)[C@@H](C)O)C(C)C)C(=O)N[C@@H](CCC(N)=O)C(=O)N[C@@H](Cc1c[nH]c2ccccc12)C(=O)N[C@@H](CC(C)C)C(=O)N[C@H](C(N)=O)C(C)C
B2: SEQ ID NO: 179 (peptide)
peptide: H[Aib]EGTFTSDVS[Aib]LLEGAALQRFIQWLV-NH2
modifications: N-terminus assumed
SMILES: CC[C@H](C)[C@H](NC(=O)[C@H](Cc1ccccc1)NC(=O)[C@H](CCCNC(=N)N)NC(=O)[C@H](CCC(N)=O)NC(=O)[C@H](CC(C)C)NC(=O)[C@H](C)NC(=O)[C@H](C)NC(=O)CNC(=O)[C@H](CCC(=O)O)NC(=O)[C@H](CC(C)C)NC(=O)[C@H](CC(C)C)NC(=O)C(C)(C)NC(=O)[C@H](CO)NC(=O)[C@@H](NC(=O)[C@H](CC(=O)O)NC(=O)[C@H](CO)NC(=O)[C@@H](NC(=O)[C@H](Cc1ccccc1)NC(=O)[C@@H](NC(=O)CNC(=O)[C@H](CCC(=O)O)NC(=O)C(C)(C)NC(=O)[C@@H](N)Cc1c[nH]cn1)[C@@H](C)O)[C@@H](C)O)C(C)C)C(=O)N[C@@H](CCC(N)=O)C(=O)N[C@@H](Cc1c[nH]c2ccccc12)C(=O)N[C@@H](CC(C)C)C(=O)N[C@H](C(N)=O)C(C)C
B3: SEQ ID NO: 180 (peptide)
peptide: H[Aib]EGTFTSDVSELLEGAALQRFIQWLV-NH2
modifications: N-terminus assumed
SMILES: CC[C@H](C)[C@H](NC(=O)[C@H](Cc1ccccc1)NC(=O)[C@H](CCCNC(=N)N)NC(=O)[C@H](CCC(N)=O)NC(=O)[C@H](CC(C)C)NC(=O)[C@H](C)NC(=O)[C@H](C)NC(=O)CNC(=O)[C@H](CCC(=O)O)NC(=O)[C@H](CC(C)C)NC(=O)[C@H](CC(C)C)NC(=O)[C@H](CCC(=O)O)NC(=O)[C@H](CO)NC(=O)[C@@H](NC(=O)[C@H](CC(=O)O)NC(=O)[C@H](CO)NC(=O)[C@@H](NC(=O)[C@H](Cc1ccccc1)NC(=O)[C@@H](NC(=O)CNC(=O)[C@H](CCC(=O)O)NC(=O)C(C)(C)NC(=O)[C@@H](N)Cc1c[nH]cn1)[C@@H](C)O)[C@@H](C)O)C(C)C)C(=O)N[C@@H](CCC(N)=O)C(=O)N[C@@H](Cc1c[nH]c2ccccc12)C(=O)N[C@@H](CC(C)C)C(=O)N[C@H](C(N)=O)C(C)C
B4: SEQ ID NO: 188 (peptide)
peptide: H[Aib]EGTFTSDWSVLLEGAALQRFIQWLV-NH2
modifications: N-terminus assumed
SMILES: CC[C@H](C)[C@H](NC(=O)[C@H](Cc1ccccc1)NC(=O)[C@H](CCCNC(=N)N)NC(=O)[C@H](CCC(N)=O)NC(=O)[C@H](CC(C)C)NC(=O)[C@H](C)NC(=O)[C@H](C)NC(=O)CNC(=O)[C@H](CCC(=O)O)NC(=O)[C@H](CC(C)C)NC(=O)[C@H](CC(C)C)NC(=O)[C@@H](NC(=O)[C@H](CO)NC(=O)[C@H](Cc1c[nH]c2ccccc12)NC(=O)[C@H](CC(=O)O)NC(=O)[C@H](CO)NC(=O)[C@@H](NC(=O)[C@H](Cc1ccccc1)NC(=O)[C@@H](NC(=O)CNC(=O)[C@H](CCC(=O)O)NC(=O)C(C)(C)NC(=O)[C@@H](N)Cc1c[nH]cn1)[C@@H](C)O)[C@@H](C)O)C(C)C)C(=O)N[C@@H](CCC(N)=O)C(=O)N[C@@H](Cc1c[nH]c2ccccc12)C(=O)N[C@@H](CC(C)C)C(=O)N[C@H](C(N)=O)C(C)C
B5: SEQ ID NO: 183 (peptide)
peptide: H[Aib]EGTFTSDVSWLLEGAALQRFIQWLV-NH2
modifications: N-terminus assumed
SMILES: CC[C@H](C)[C@H](NC(=O)[C@H](Cc1ccccc1)NC(=O)[C@H](CCCNC(=N)N)NC(=O)[C@H](CCC(N)=O)NC(=O)[C@H](CC(C)C)NC(=O)[C@H](C)NC(=O)[C@H](C)NC(=O)CNC(=O)[C@H](CCC(=O)O)NC(=O)[C@H](CC(C)C)NC(=O)[C@H](CC(C)C)NC(=O)[C@H](Cc1c[nH]c2ccccc12)NC(=O)[C@H](CO)NC(=O)[C@@H](NC(=O)[C@H](CC(=O)O)NC(=O)[C@H](CO)NC(=O)[C@@H](NC(=O)[C@H](Cc1ccccc1)NC(=O)[C@@H](NC(=O)CNC(=O)[C@H](CCC(=O)O)NC(=O)C(C)(C)NC(=O)[C@@H](N)Cc1c[nH]cn1)[C@@H](C)O)[C@@H](C)O)C(C)C)C(=O)N[C@@H](CCC(N)=O)C(=O)N[C@@H](Cc1c[nH]c2ccccc12)C(=O)N[C@@H](CC(C)C)C(=O)N[C@H](C(N)=O)C(C)C
B6: SEQ ID NO: 187 (peptide)
peptide: H[Aib]EGTFTSDWSGLLEGAALQRFIQWLV-NH2
modifications: N-terminus assumed
SMILES: CC[C@H](C)[C@H](NC(=O)[C@H](Cc1ccccc1)NC(=O)[C@H](CCCNC(=N)N)NC(=O)[C@H](CCC(N)=O)NC(=O)[C@H](CC(C)C)NC(=O)[C@H](C)NC(=O)[C@H](C)NC(=O)CNC(=O)[C@H](CCC(=O)O)NC(=O)[C@H](CC(C)C)NC(=O)[C@H](CC(C)C)NC(=O)CNC(=O)[C@H](CO)NC(=O)[C@H](Cc1c[nH]c2ccccc12)NC(=O)[C@H](CC(=O)O)NC(=O)[C@H](CO)NC(=O)[C@@H](NC(=O)[C@H](Cc1ccccc1)NC(=O)[C@@H](NC(=O)CNC(=O)[C@H](CCC(=O)O)NC(=O)C(C)(C)NC(=O)[C@@H](N)Cc1c[nH]cn1)[C@@H](C)O)[C@@H](C)O)C(=O)N[C@@H](CCC(N)=O)C(=O)N[C@@H](Cc1c[nH]c2ccccc12)C(=O)N[C@@H](CC(C)C)C(=O)N[C@H](C(N)=O)C(C)C
B7: SEQ ID NO: 189 (peptide)
peptide: H[Aib]EGTFTSDWSYLLEGAALQRFIQWLV-NH2
modifications: N-terminus assumed
SMILES: CC[C@H](C)[C@H](NC(=O)[C@H](Cc1ccccc1)NC(=O)[C@H](CCCNC(=N)N)NC(=O)[C@H](CCC(N)=O)NC(=O)[C@H](CC(C)C)NC(=O)[C@H](C)NC(=O)[C@H](C)NC(=O)CNC(=O)[C@H](CCC(=O)O)NC(=O)[C@H](CC(C)C)NC(=O)[C@H](CC(C)C)NC(=O)[C@H](Cc1ccc(O)cc1)NC(=O)[C@H](CO)NC(=O)[C@H](Cc1c[nH]c2ccccc12)NC(=O)[C@H](CC(=O)O)NC(=O)[C@H](CO)NC(=O)[C@@H](NC(=O)[C@H](Cc1ccccc1)NC(=O)[C@@H](NC(=O)CNC(=O)[C@H](CCC(=O)O)NC(=O)C(C)(C)NC(=O)[C@@H](N)Cc1c[nH]cn1)[C@@H](C)O)[C@@H](C)O)C(=O)N[C@@H](CCC(N)=O)C(=O)N[C@@H](Cc1c[nH]c2ccccc12)C(=O)N[C@@H](CC(C)C)C(=O)N[C@H](C(N)=O)C(C)C
B8: SEQ ID NO: 19 (peptide)
peptide: H[Aib]EGTFTSDVSRLK([AEEA-AEEA-γGlu-C20 diacid])ELAASQRFLEHLV-NH2
B9: SEQ ID NO: 185 (peptide)
peptide: H[Aib]EGTFTSDWSYLK([AEEA-AEEA-γGlu-C20 diacid])EEA[Aib]LQRFLEHLV-NH2
B10: SEQ ID NO: 182 (peptide)
peptide: H[Aib]EGTFTSDVSGLLEGAALQRFIQWLV-NH2
modifications: N-terminus assumed
SMILES: CC[C@H](C)[C@H](NC(=O)[C@H](Cc1ccccc1)NC(=O)[C@H](CCCNC(=N)N)NC(=O)[C@H](CCC(N)=O)NC(=O)[C@H](CC(C)C)NC(=O)[C@H](C)NC(=O)[C@H](C)NC(=O)CNC(=O)[C@H](CCC(=O)O)NC(=O)[C@H](CC(C)C)NC(=O)[C@H](CC(C)C)NC(=O)CNC(=O)[C@H](CO)NC(=O)[C@@H](NC(=O)[C@H](CC(=O)O)NC(=O)[C@H](CO)NC(=O)[C@@H](NC(=O)[C@H](Cc1ccccc1)NC(=O)[C@@H](NC(=O)CNC(=O)[C@H](CCC(=O)O)NC(=O)C(C)(C)NC(=O)[C@@H](N)Cc1c[nH]cn1)[C@@H](C)O)[C@@H](C)O)C(C)C)C(=O)N[C@@H](CCC(N)=O)C(=O)N[C@@H](Cc1c[nH]c2ccccc12)C(=O)N[C@@H](CC(C)C)C(=O)N[C@H](C(N)=O)C(C)C
B11: SEQ ID NO: 184 (peptide)
peptide: H[Aib]EGTFTSDVSVLLEGAALQRFIQWLV-NH2
modifications: N-terminus assumed
SMILES: CC[C@H](C)[C@H](NC(=O)[C@H](Cc1ccccc1)NC(=O)[C@H](CCCNC(=N)N)NC(=O)[C@H](CCC(N)=O)NC(=O)[C@H](CC(C)C)NC(=O)[C@H](C)NC(=O)[C@H](C)NC(=O)CNC(=O)[C@H](CCC(=O)O)NC(=O)[C@H](CC(C)C)NC(=O)[C@H](CC(C)C)NC(=O)[C@@H](NC(=O)[C@H](CO)NC(=O)[C@@H](NC(=O)[C@H](CC(=O)O)NC(=O)[C@H](CO)NC(=O)[C@@H](NC(=O)[C@H](Cc1ccccc1)NC(=O)[C@@H](NC(=O)CNC(=O)[C@H](CCC(=O)O)NC(=O)C(C)(C)NC(=O)[C@@H](N)Cc1c[nH]cn1)[C@@H](C)O)[C@@H](C)O)C(C)C)C(C)C)C(=O)N[C@@H](CCC(N)=O)C(=O)N[C@@H](Cc1c[nH]c2ccccc12)C(=O)N[C@@H](CC(C)C)C(=O)N[C@H](C(N)=O)C(C)C

Numbered stars: 1 amine (or outer) side, 2 acyl side, 3 side chain; on linkers, the order of the positions; unused ones are H or OH. Square brackets hold non-standard residues; d marks the D form. Side chains are listed from the residue outwards. Ends that are not written are not given here. * marks the point of attachment. C20 diacid = O=C(O)CCCCCCCCCCCCCCCCCCC(=O)*; γGlu = O=C(O)[C@H](CCC(=O)[*:2])N[*:1]; AEEA = NCCOCCOCC(=O)O; Aib = CC(C)(N)C(=O)O

human secretin receptor (hSCTR), sequence (P47872 23-440): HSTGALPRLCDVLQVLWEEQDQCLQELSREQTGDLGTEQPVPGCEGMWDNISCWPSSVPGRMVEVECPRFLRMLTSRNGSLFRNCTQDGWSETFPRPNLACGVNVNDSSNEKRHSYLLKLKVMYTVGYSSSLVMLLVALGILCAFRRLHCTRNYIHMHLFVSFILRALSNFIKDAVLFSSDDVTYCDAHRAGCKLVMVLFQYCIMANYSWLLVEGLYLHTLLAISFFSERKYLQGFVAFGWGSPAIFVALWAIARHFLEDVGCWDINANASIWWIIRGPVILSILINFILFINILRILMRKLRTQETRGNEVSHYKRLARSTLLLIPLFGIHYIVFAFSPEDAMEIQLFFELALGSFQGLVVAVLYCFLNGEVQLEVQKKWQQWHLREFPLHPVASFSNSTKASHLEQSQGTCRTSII

The first experiment addresses human secretin receptor (hSCTR) (human, UniProt P47872 23-440). Nature of the experiment: cell-based or functional assay.
Consider B1, for which the “pEC50 hSCTR” value was 6.7 -log M.
Take B2: the “pEC50 hSCTR” value was 6.3 -log M.
With B3, the “pEC50 hSCTR” value was 6.7 -log M.
For the molecule B4, the “pEC50 hSCTR” value is 7.5 -log M.
Turning to B5, the “pEC50 hSCTR” value was 6.8 -log M.
The same measure, in the same setting: the figure for B6 is 7.3 -log M.
Consider B7, for which the “pEC50 hSCTR” value was 6.8 -log M.
In the case of B8, the “pEC50 hSCTR” value was 6.2 -log M.
On the same count and under the same terms, the figure for B9 is 7.3 -log M; for B10 it is 6.8 -log M.
Still for that read-out and setting: the figure for B11 is 6.6 -log M.

Another experiment deals with human GLP-1 receptor (hGLP1R) (human, UniProt P43220 24-463). Nature of the experiment: cell-based or functional assay.
With B1, the “pEC50 hGLPR1” value was 10.3 -log M.
In the case of B2, the “pEC50 hGLPR1” value was 10.1 -log M.
For the molecule B3, the “pEC50 hGLPR1” value was 10.8 -log M.
Consider B4, for which the “pEC50 hGLPR1” value was 10.1 -log M.
Take B5: the “pEC50 hGLPR1” value is 10.3 -log M.
B6: the “pEC50 hGLPR1” value was 10.4 -log M.
With B7, the “pEC50 hGLPR1” value was 10.8 -log M.
Regarding B8, the “pEC50 hGLPR1” value is 10.1 -log M.
For the molecule B9, the “pEC50 hGLPR1” value was 11.2 -log M.
B10: the “pEC50 hGLPR1” value was 10.3 -log M.
Still for that read-out and setting: the figure for B11 is 10.6 -log M.

Values taken from patent US20260201008A1, “SECRETIN-DERIVED GLP1R SELECTIVE AGONISTS” (GUBRA A/S, priority 2023, published 2026).
